B1: Cdc15 F-BAR (aa 19–312) (domain or fragment, S. pombe, UniProt Q09822 19-312, looked up)
chain: SVKFRDNFWGSEDAGMDALMSRTKSSLSVLESIDEFYAKRASIEREYASKLQELAASSADIPEVGSTLNNILSMRTETGSMAKAHEEVSQQINTELRNKIREYIDQTEQQKVVAANAIEELYQKKTALEIDLSEKKDAYEYSCNKLNSYMRQTKKMTGRELDKYNLKIRQAALAVKKMDAEYRETNELLLTVTREWIDRWTEVCDAFQHIEEYRLEFLKTNMWAYANIISTACVKDDESCEKIRLTLENTNIDEDITQMIQNEGTGTTIPPLPEFNDYFKENGLNYDIDQLISK

Experiment [1] addresses T1, MBP-Cdc12 (aa 1–764) (S. pombe, UniProt Q10059 1-764).
T1 sequence (looked up): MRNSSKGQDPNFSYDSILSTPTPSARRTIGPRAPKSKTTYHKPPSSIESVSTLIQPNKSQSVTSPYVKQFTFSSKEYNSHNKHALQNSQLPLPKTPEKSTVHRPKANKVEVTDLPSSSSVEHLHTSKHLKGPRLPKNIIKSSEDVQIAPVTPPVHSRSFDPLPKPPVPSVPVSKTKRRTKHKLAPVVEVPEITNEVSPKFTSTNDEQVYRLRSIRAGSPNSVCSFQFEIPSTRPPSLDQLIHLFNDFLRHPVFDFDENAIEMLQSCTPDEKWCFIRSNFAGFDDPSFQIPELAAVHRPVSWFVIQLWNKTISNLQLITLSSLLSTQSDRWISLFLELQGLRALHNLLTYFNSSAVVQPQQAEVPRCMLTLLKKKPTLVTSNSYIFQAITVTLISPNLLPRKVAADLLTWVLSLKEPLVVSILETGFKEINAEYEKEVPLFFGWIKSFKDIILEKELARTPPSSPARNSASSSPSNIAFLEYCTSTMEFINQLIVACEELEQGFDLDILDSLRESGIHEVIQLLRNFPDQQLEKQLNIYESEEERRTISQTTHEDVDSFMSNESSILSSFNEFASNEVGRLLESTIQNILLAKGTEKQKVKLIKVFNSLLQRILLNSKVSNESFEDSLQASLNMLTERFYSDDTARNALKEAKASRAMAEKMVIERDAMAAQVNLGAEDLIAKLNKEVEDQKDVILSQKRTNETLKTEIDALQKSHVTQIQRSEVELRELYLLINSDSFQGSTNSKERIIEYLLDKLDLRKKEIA
The experiment is described as follows: pull-down.

Experiment [2] concerns the target B1. Description: pull-down.

Ends that are not written are not given here.

By Kd is commonly meant the concentration at which binding is half-saturated. A higher Kd goes with weaker binding.

Consider B1, for which the binding result in experiment [1] is listed as “binds”.

B2: Cdc12 (aa 20–40) synthetic peptide (peptide, UniProt Q10059 20-40, looked up)
peptide: TPTPSARRTIGPRAPKSKTTY
modifications: also: biotinylated, position not given here
For the molecule B2, in experiment [2], the Kd amounted to 1.1 nM.

The values above are taken from PMC4332253 (The Journal of Cell Biology, 2015).
